Substitutions are numbered along the chain they refer to. Square brackets hold non-standard residues; d marks the D form. Ends that are not written are not given here. Cit = NC(=O)NCCC[C@H](N)C(=O)O
T1: citrullinated histone 2A-derived peptide (SEQ ID NO: 18), C-terminal biotin (human)
T1 construct: Captured by its biotin on NeutrAvidin plates (ELISA) or streptavidin biosensors (Octet); also called histone-derived peptide; citrullinated H2A-derived peptide
T1 peptide: SG[Cit]GKQGGKARA-biotin

T2: citrullinated histone 4-derived peptide (SEQ ID NO: 20), C-terminal biotin (human, citrulline at position 3; biotin at the C-terminus)
T2 construct: Immobilized on streptavidin biosensors (Octet RED96); also called H4-derived peptide; N-terminal histone 4 peptide
T2 peptide: SGXGKGGKGLGK

B1: hMQ22.101j/h (antibody, V domains shown)
VH: QVQLVQSGAEVKKPGASVKVSCKASGYTFTNYGMHWVRQAPGQGLEWMGWINTYSGEATYAQKFQGRVTMTRDTSISTAYMELSRLRSDDTAVYYCLRGYTYQSFDEGGDYWGQGTLVTVSS
VL: DVVMTQSPLSLPVTLGQPASISCRSSQSLVASDGKTYLNWFQQRPGQSPRRLIYLVSKLDSGVPDRFSGSGSGTDFTLKISRVEAEDVGVYYCWQGTHFPYTFGQGTKLEIK
notes: also called VL CDR1 aspartate-mutated antibody (DS site to AS)
B2: hMQ22.101j/j (antibody, V domains shown)
VH: B1 VH
VL: B1 VL with A31S
notes: also called VL CDR1 aspartate-mutated antibody (DS site to SS)
B3: hMQ22.101j/i (antibody, V domains shown)
VH: B1 VH
VL: B1 VL with A31E
notes: also called VL CDR1 aspartate-mutated antibody (DS site to ES); heavy chain hVH22.101j with light chain hVL22.101i
B4: hMQ22.101j/LC17 (antibody, V domains shown)
VH: B1 VH
VL: B1 VL with V30L, A31D, S32T
notes: also called isomerization mutant; heavy chain hVH22.101j with light chain hVL22.101LC17
B5: hMQ22.101HC8/LC41 (antibody, V domains shown)
VH: B1 VH with A16S, A61V, Q62D, K63D, M70I, R72A, T74E, I76T, R85S, D89E
VL: B1 VL with V30L, A31D, S32A
notes: also called isomerization mutant; heavy chain hVH22.101HC8 with light chain hVL22.101LC41
B6: hMQ22.101HC8/LC17 (antibody, V domains shown)
VH: B1 VH with A16S, A61V, Q62D, K63D, M70I, R72A, T74E, I76T, R85S, D89E
VL: B1 VL with V30L, A31D, S32T
notes: also called isomerization mutant; heavy chain hVH22.101HC8 with light chain hVL22.101LC17
B7: hMQ22.101HC7/LC17 (antibody, V domains shown)
VH: B1 VH with A16S, M70I, R72A, T74E, I76T, R85S, D89E
VL: B1 VL with V30L, A31D, S32T
notes: also called isomerization mutant; heavy chain hVH22.101HC7 with light chain hVL22.101LC17
B8: hMQ22.101HC9/LC27 (antibody, V domains shown)
VH: B1 VH with Q1R, V2I, A61V, Q62D, K63D
VL: B1 VL with V30L, A31D, S32T, G34A
notes: also called isomerization mutant; heavy chain hVH22.101HC9 with light chain hVL22.101LC27
B9: hMQ22.101HC7/LC41 (antibody, V domains shown)
VH: B1 VH with A16S, M70I, R72A, T74E, I76T, R85S, D89E
VL: B1 VL with V30L, A31D, S32A
notes: also called isomerization mutant; heavy chain hVH22.101HC7 with light chain hVL22.101LC41
B10: hMQ22.101HC9/LC21 (antibody, V domains shown)
VH: B1 VH with Q1R, V2I, A61V, Q62D, K63D
VL: B1 VL with V30L, A31D, G34A
notes: also called isomerization mutant; heavy chain hVH22.101HC9 with light chain hVL22.101LC21
B11: hMQ22.101HC7/LC21 (antibody, V domains shown)
VH: B1 VH with A16S, M70I, R72A, T74E, I76T, R85S, D89E
VL: B1 VL with V30L, A31D, G34A
notes: also called isomerization mutant; heavy chain hVH22.101HC7 with light chain hVL22.101LC21
B12: hMQ22.101HC8/LC21 (antibody, V domains shown)
VH: B1 VH with A16S, A61V, Q62D, K63D, M70I, R72A, T74E, I76T, R85S, D89E
VL: B1 VL with V30L, A31D, G34A
notes: also called isomerization mutant; heavy chain hVH22.101HC8 with light chain hVL22.101LC21
B13: hMQ22.101j/LC27 (antibody, V domains shown)
VH: B1 VH
VL: B1 VL with V30L, A31D, S32T, G34A
notes: also called isomerization mutant; heavy chain hVH22.101j with light chain hVL22.101LC27
B14: hMQ22.101HC9/LC41 (antibody, V domains shown)
VH: B1 VH with Q1R, V2I, A61V, Q62D, K63D
VL: B1 VL with V30L, A31D, S32A
notes: also called isomerization mutant; heavy chain hVH22.101HC9 with light chain hVL22.101LC41

Biological target: T1, citrullinated histone 2A-derived …
Assay: CMC ELISA, biotinylated peptide on NeutrAvidin-coated plate, anti-human-HRP, OD 450 nm
Method: hMQ22.101j/e samples from week 0, 2, 4, 6 and 8, and hMQ22.101f/g samples from week 0, 3 and 6 were subjected to an in house-validated CMC ELISA. 96-well ELISA plates were coated with NeutrAvidin™ ([…]) by overnight incubation at 4° C. Wells were washed 5 times with PBS-Tween® (polysorbate) 20 (PBS-T) and blocked by a 2 hour incubation with PBS-T+1% Bovine serum albumin (BSA) at room temperature (RT). After 5 more washes with PBS-T, wells were incubated for 1 hour at RT with a histone-derived peptide (SEQ ID NO 18: SGXGKQGGKARA), containing a citrulline (X) at position 3 and a C-terminal biotin (40 ng/well) in PBS-T+0.2% BSA. After another 5 washes with PBS-T, a calibration curve made from a reference lot of hMQ22.101j/e or hMQ22.101f/g by adding to the wells starting at […] and further diluted at a 1:1 ratio until reaching a concentration of 0.66 ng/ml in PBS-T+0.2% BSA. Spiked quality control (QC) samples made from the same reference lot hMQ22.101j/e or hMQ22.101f/g at higher (HQC, 250 ng/ml), middle (MQC, 50 ng/ml), lower (LQC 3.75 ng/ml) and lower limit quality control (LLQC, 1.25 ng/ml) were diluted in PBS-T+0.2% BSA and added to the plate as well. These QC samples were used in order to validate the ELISA results.
Finally, accelerated stability samples that had been incubated for 0, 2, 3, 4, 6 and 8 weeks at 37° C. were added to the same plate at a concentration of 40 ng/ml in PBS-T+0.2% BSA and incubated for 2 hours at RT. Wells were washed 5 times with PBS-T and incubated with rabbit anti-human-HRP antibody (1:12.000 in PBS-T+0.2% BSA) for 1 hour at RT followed by 3 washes with PBS-T and 3 washes with PBS. Wells were incubated 10 min with TMB substrate before stopping the reaction with 2 M H₂SO₄ after which the optical density was measured at wavelength of 450 nm. A sigmoidal calibration curve was plotted and fitted using the values from the serial diluted reference antibody. Concentrations of the QC samples and accelerated stability samples were recalculated using the equation from the sigmoidal fitted curve.

| binding result | Binder |
| --- | --- |
| binds | B1 |
| binds | B2 |
| binds | B3 |

Biological target: T1, citrullinated histone 2A-derived …
Assay: Octet RED96 off-rate screen, biotinylated peptide on streptavidin biosensors, antibody 72 nM, 30 C
Method: (§1) Off-rate screening of the isomerization-mutated antibodies was performed on an Octet® RED96 (biomolecule detection system) instrument (Pall ForteBio). All measurements were performed at 30° C. Streptavidin (SA) biosensors were first washed for 50 sec with PBS. 1 μg/ml N-terminal histone 2A (SEQ ID NO: 18) and histone 4 (SEQ ID NO: 20) peptides, containing both a citrulline at position 3 and a biotin at the C-terminus, were immobilized on SA biosensors for 200 sec, washed with PBS for 50 sec and excess reactive streptavidin molecules blocked with EZ-Link™ biocytin for 200 sec. After two additional 50 sec wash steps in PBS, antibodies at a concentration of 72 nM diluted in PBS were allowed to bind to the biosensors for 200 sec. Sensors were subsequently placed in PBS for 4000 sec in order to measure their dissociation rates.
(§2) Background signals generated with non-coated biosensors, which have been exposed to the various antibodies as well as signals from coated biosensors that have not been exposed to the various antibodies, have been subtracted before dissociation curves for each antibody were plotted. Both histone 2A and histone 4 dissociation rates constants (kdis×E-07 (1/s)) for each antibody were calculated applying a 1:1 interaction model (fitting local, full) using ForteBio data analysis software 8.1.

| binding result | Binder |
| --- | --- |
| binds | B4 |
| binds | B5 |
| binds | B6 |
| binds | B7 |
| binds | B8 |
| binds | B9 |
| binds | B10 |
| binds | B11 |
| binds | B12 |
| binds | B13 |
| binds | B14 |

Biological target: T2, citrullinated histone 4-derived peptide …
Assay: as above
Method: as §1, §2

| binding result | Binder |
| --- | --- |
| binds | B4 |
| binds | B5 |
| binds | B6 |
| binds | B7 |
| binds | B8 |
| binds | B9 |
| binds | B10 |
| binds | B11 |
| binds | B12 |
| binds | B13 |
| binds | B14 |

From US20260176342A1 (CITRYLL B V, published 2026)
